No end group written: not given here.
Legend:
FLNCd18–21 [1] = biological target: T1, FLNCd18–21 (Homo sapiens, UniProt Q14315); test: SDS-PAGE aggregation assay with FLNCd18–21; type: biochemical; conditions: 80 μM HspB1 + 40 μM FLNCd18–21 (2:1), 200 mM ammonium acetate pH 6.9, 500 μM DTT, 25°C, 90 min, densitometry
T1 construct: WT, residues 1943 to 2408 from UniProt ID Q14315; 6xHis (C); EEF (C); made in house; host or cells: E. coli BL21(DE3) pLysS
T1 sequence (Q14315 1943-2408): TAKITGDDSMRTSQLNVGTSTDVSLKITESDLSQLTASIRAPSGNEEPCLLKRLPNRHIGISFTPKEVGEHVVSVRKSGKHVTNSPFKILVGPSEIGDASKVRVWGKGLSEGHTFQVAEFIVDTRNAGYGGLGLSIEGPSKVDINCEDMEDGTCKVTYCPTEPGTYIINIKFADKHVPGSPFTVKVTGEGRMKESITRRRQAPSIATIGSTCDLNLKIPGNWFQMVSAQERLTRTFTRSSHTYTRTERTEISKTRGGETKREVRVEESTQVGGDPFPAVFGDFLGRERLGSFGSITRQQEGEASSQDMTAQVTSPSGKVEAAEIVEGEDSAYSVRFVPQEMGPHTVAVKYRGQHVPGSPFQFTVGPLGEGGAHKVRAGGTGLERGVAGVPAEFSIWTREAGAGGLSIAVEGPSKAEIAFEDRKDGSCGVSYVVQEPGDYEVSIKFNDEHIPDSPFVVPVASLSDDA
Procedure: (§1) Next, to validate the interaction in vitro, we expressed EEF-tagged human FLNC domains 18 to 21, encompassing the apparent HspB1 binding site ([16]), and full-length human HspB1 attached to a T7 tag. […] To investigate the effect of HspB1 phosphorylation on the interaction, we expressed WT human HspB1 and ^3PHspB1, a triple mutant containing phosphomimetic Ser to Asp substitutions at residues 15, 78, and 82. Upon incubation with FLNCd18–21 in vitro, we noticed that mixtures accumulated insoluble protein aggregates, while isolated proteins remained soluble. […] The results support an interaction between HspB1 and FLNCd18–21 to form large complexes that can be modulated by phosphorylation of HspB1.
HspB1 (WT or 3P) was mixed with FLNCd18–21 at a 2:1 ratio (80 and 40 μM, respectively) in 200 mM ammonium acetate (pH 6.9) with 500 μM DTT and incubated at 25°C for 90 min. Aliquots were removed periodically and pelleted at 13,000g at 10°C for 10 min. Soluble fractions were diluted threefold with 200 mM ammonium acetate for analysis by SDS-PAGE, and pellets were resuspended in the same volume of 200 mM ammonium acetate and solubilized upon addition of the SDS-PAGE loading buffer. Gel bands were quantified by densitometry, using the raw intensities of FLNC and HspB1 bands to extract relative soluble and insoluble proportions at each time point.

FLNCd18–21 [2] = biological target: T1, FLNCd18–21; test: native MS peptide titration / complex detection with FLNCd18–21; type: binding; conditions: for complex formation with FLNCd18–21: native MS, 200 mM ammonium acetate pH 6.9, peptides at 30 μM with 5 μM FLNCd18–21 (fig. S5D)
Text: To isolate a stable HspB1-FLNCd18–21 complex and localize the binding within HspB1, we performed native ion mobility MS (IM-MS) experiments. […] Next, we mixed FLNCd18–21 with either HspB1_84–171 or peptides mimicking the PPR, because this region is phosphorylated in the MLP KO mice (Fig. 1C) and generally upon biomechanical stress ([26]) and becomes exposed thereafter. This strategy of using segments of HspB1 meant that we could avoid the problems of insolubilization of the full-length protein upon interaction with FLNC d18–21, as well as generally mitigate the confounding effects associated with the chaperone’s intrinsic polydispersity.
By quantifying the relative abundances of FLNCd18–21 and the peptide-bound species, we could determine binding affinities (Fig. 4B, lower panel, and fig. S4G). We obtained similar dissociation constants (KDs) of 130 ± 17 μM (HspB1_80–88) and 110 ± 10 μM (^PHspB1_80–88), indicating weak binding that is not affected substantially by phosphorylation. These findings contrast with the notable effect of HspB1 phosphomimicry on the interaction of full-length chaperone with the FLNC fragment (Fig. 1E). However, they can be rationalized by phosphorylation increasing the effective concentration of the binding region by modulating its conformational state (Fig. 2B and fig. S3) and leading to dimer (Fig. 2D) and oligomer disassembly ([22], [23]). To localize binding of HspB1_80–88 to domains with Ig folds or to the d20 insertion (which is possibly disordered), we prepared a modified FLNC construct lacking the 82 insertion residues (FLNCd18–21,ΔI).
The region of human FLNC comprising domains 18 to 21 (WT, residues 1943 to 2408 from UniProt ID Q14315; ∆I, residues 1943 to 2408 excluding 2163 to 2243) was encoded in a modified pET23a/EEF with C-terminal 6× His and EEF tags. The plasmid was transformed into E. coli BL21(DE3) pLysS cells (Agilent). To generate the Mβ construct, mutations E2136R and I2138E were introduced by site-directed mutagenesis. Cells were grown in LB at 37°C until an OD600 of 0.6 to 0.8 was reached. […] Purity was assessed by SDS-PAGE, and protein was stored in MS buffer at −80°C and used for experiments within 2 weeks of purification, after noticing in initial preparations some propensity for destabilization and aggregation following long-term storage. […]
Because HspB1 can form disulfide-linked dimers, experiments involving the ACD were performed in the presence of 10-fold molar excess DTT. […] Native MS and IM-MS data were recorded on a Synapt G1 mass spectrometer (Waters) modified for the transmission of intact noncovalent protein complexes. HspB1_77–171 variants were analyzed at a concentration of 10 μM in 200 mM ammonium acetate (pH 6.9). […]

EEF-tagged FLNCd18–21 = test: coimmunoprecipitation of recombinant proteins; type: binding, human; conditions: T7 antibody pull-down, 1 μg HspB1, 10 μg FLNCd18–21, 1 hour, room temperature
Procedure: as §1
T7-tagged purified recombinant HspB1 protein (1 μg) was added to 10 μg of EEF-tagged recombinant FLNCd18–21 in immunoprecipitation (IP) buffer [0.05% Triton X-100, 1% bovine serum albumin, protease inhibitors (Roche mini complete EDTA-free tablets) in phosphate-buffered saline (PBS)] and incubated for 1 hour, shaking at room temperature. This was followed by another 30-min incubation, shaking at room temperature after the addition of 0.5 μg of anti-T7 (69522, Novagen) or mouse IgG2b isotype (ab18457, Abcam) antibody. Next, 25 μl of protein G Sepharose resin (PC-G5, Generon) was added to each tube and incubated for 1 hour, shaking at room temperature. […]

[3] = biological target: T2, human FLNC domains 18 to 21 (FLNC_(d18–21)), EEF-tagged (human, UniProt Q14315 1943-2408); test: native MS; titration: FLNC_(d18–21) constant at 5 μM, peptide 5 to 160 μM, 200 mM ammonium acetate pH 6.9, acetonitrile vapor; fit with three equivalent binding sites (UniDec); conditions: both partners purified
T2 construct: human filamin C, domains 18 to 21, residues 1943 to 2408 of UniProt Q14315; Modified pET23a/EEF vector; No cleavage of the tags is described; also called FLNC fragment; source: E. coli BL21(DE3) pLysS, purified (HisTrap, SEC Superdex 200); not shown: EEF, C-terminal, kept
T2 sequence (looked up): T1 sequence (Q14315 1943-2408)

[4] = biological target: T2, human FLNC domains 18 to 21 …; test: cell-based or functional assay
[5] = biological target: T2, human FLNC domains 18 to 21 …; test: native MS; native IM-MS of mixtures of FLNC_(d18–21) or FLNC_(d18–21,ΔI) with HspB1_(84–171), HspB1 peptides or an excess of control peptides; 200 mM ammonium acetate pH 6.9; conditions: both partners purified

Molecule: ^3PHspB1: Full-length human HspB1 with Ser to Asp phosphomimic substitutions at residues 15, 78 and 82
- migration to pelleted fraction of mixture with FLNCd18–21 (FLNCd18–21 [1]): substantially increased by phosphomimicry

Molecule: HspB1_84–171: Human HspB1 α-crystallin domain (ACD)
- complex formation with FLNCd18–21 (FLNCd18–21 [2]): Complexes were not observed
- complex formation with FLNCd18–21 (FLNCd18–21 [2]; listed as HspB184-171): No complex is observed

Molecule: WT human HspB1: Full-length WT HspB1
- migration to pelleted fraction of mixture with FLNCd18–21 (FLNCd18–21 [1]): both proteins migrated to the pelleted fraction over time

Molecule: HspB1_177–186: Peptide from human HspB1, C-terminal residues 177 to 186 (NEITIPVTFE; UniProt P04792 177-186, looked up, fragment) [reference compound]
- complex formation with FLNCd18–21 (FLNCd18–21 [2]): No appreciable complex is detected

Molecule: T7-tagged HspB1: Full-length WT HspB1 with an N-terminal T7 tag
- coimmunoprecipitation of FLNCd18–21 (EEF-tagged FLNCd18–21): pulled down both HspB1 and FLNCd18–21
- coimmunoprecipitation of FLNCd18–21 (EEF-tagged FLNCd18–21; listed as full-length human HspB1 attached to a T7 tag): confirming a direct interaction

Molecule: QLSSGVSEI [HspB1_80–88]
- Kd (FLNCd18–21 [2]; native MS titration, 5 μM FLNCd18–21, 5 to 160 μM peptide, 200 mM ammonium acetate pH 6.9, minimum three technical repeats, model of three equivalent binding sites, 500 bootstraps, apparent KD, read-out: dissociation constant KD (apparent)): > 100 µM

B1: ^PHspB1_(80–88) phosphorylated peptide (peptide, UniProt P04792 80-88, looked up)
peptide: QLSSGVSEI
modifications: also: phosphorylated, site not given here
notes: N-terminal acetylation open as for m13; also called phosphopeptide; source: synthetic peptide, bought: Biomatik
- Kd [3]: 110 ± 10 µM
- stoichiometry N [3]: ≤ 3
- activation required for the transition of unfolding intermediate B to final state C of FLNC_(d18–21) with one peptide bound (coulombically steered unfolding, IM-MS) [4]: ~75 V
- stoichiometry N [5]: ≤ 2
